This is an account of results in patent US20160289339A1 (IMMUNWORK, published 2016).

Experiment [1] concerns the target T1, synthetic polypeptide maF1-2 (human).
T1 peptide: GSCSVADWQMPP
Description: ELISA on coated synthetic polypeptides. The protocol: (§1) Anti-migis-α mAbs 8G7 (Igγ2b, κ) and 29C11 (Igγ1, κ) were purified from hybridoma culturing medium by using Protein A Sepharose CL-4B medium (GE Healthcare). Purified mAbs were stored in PBS at the concentration of 1 mg/ml. A mouse anti-human IgA1.Fc mAb 3C10 (Igγ1, Abcam) and mouse total IgG (Sigma-Aldrich) were used as positive and negative controls, respectively. Various migis-α-containing recombinant proteins and several irrelevant proteins were tested in ELISA. Proteins were coated at 1 μg/ml in 0.05M carbonate/bicarbonate buffers in ELISA plates at 4° C. for overnight. Plates were washed with PBST (PBS with 0.05% Tween® 20) and blocked by PBS/BSA (PBS with 1% BSA) at room temperature for 1 h. After washing with PBST, mAbs at 1 μg/ml in PBS/BSA were added into plates and incubated at room temperature for 1 hr. Plates were washed with PBST and then HRP-conjugated goat anti-mouse IgG.Fc antibodies 1:10,000 diluted in PBS/BSA were adding into plates. After incubation at room temperature for 1 hr and washing with PBST, Tetramethylbenzidine substrates (Clinical Scientific Products) were added into plates for colorimetric measurement.
(§2) Synthetic migis-αL polypeptides were further used to study binding epitopes of anti-migis-α mAbs by ELISA. Polypeptides maFL (SEQ ID NO:9), maFa (SEQ ID NO:10), maFb (SEQ ID NO:11), and maFc (SEQ ID NO:12) are fragments that represent the full length, the N-terminal part, the middle part, and the C-terminal part of migis-αL sequences (FIG. 3A). Polypeptides maF1-2 (SEQ ID NO:13), maF1-3 (SEQ ID NO:14), maF2 (SEQ ID NO:15), and maF2-1 (SEQ ID NO:16) were designed to test shorter sequences for binding activity of anti-migis-α mAbs. Polypeptides at 10 μg/ml were coated in micro-well plates for reacting and ELISA procedures were followed as described above. […] In contrast, 29C11 is capable of binding to both the N-terminal and the middle part of migis-αL sequences, and also reacting to short fragments of the N-terminal polypeptides. (FIGS. 3B-C).

For experiment [2], the target named is T2, synthetic polypeptide maF1-3 (human).
T2 peptide: CSVADWQMPPPY
Nature of the experiment: ELISA on coated synthetic polypeptides. The protocol: as §1, §2
In general terms: An ELISA detects its analyte on a solid surface through an enzyme-linked reagent.

In experiment [3] the target is T3, synthetic polypeptide maF2 (human).
T3 peptide: VADWQMPPPYVV
Description: ELISA on coated synthetic polypeptides. As to the method:
as §1, §2

Experiment [4] concerns the target T4, synthetic polypeptide maF2-1 (human).
T4 peptide: DWQMPPPYVVLD
Description: ELISA on coated synthetic polypeptides. As to the method: as §1, §2

The target of experiment [5] is T5, mα1.Fc recombinant protein (human, UniProt P01876 103-333).
T5 construct: leader/His tag/linker of the vector as for the other constructs
Description: ELISA screening of hybridoma culture medium. The protocol: Fifty microgram of the chimeric protein was used to immunize each Balb/c mouse subcutaneously for 4-5 times in a two-week interval. Three days before cell fusion, ten microgram of the chimeric protein was injected into each mouse intravenously. The splenocytes isolated from immunized mice were fused with mouse myeloma cells FO by using polyethylene glycol 1500 (Roche). After fusion procedures, cells were grown in HAT selection medium for 10-12 days and the cultured medium was transferred for ELISA screening (detailed in the next section). […] Hybridoma clones which produce antibodies reacting to mα1.FcL-LZ and not reacting to mα1.Fc were identified as candidates by using horseradish peroxidase (HRP)-conjugated goat anti-mouse IgG.Fc antibodies (Jackson ImmunoResearch) in ELISA. To further test the binding of hybridoma candidates towards mIgA-expressing B cells, 2×10⁵ DAKIKI cells were incubated with 100 μl of cultured medium on ice for 30 min. Cells were washed with staining buffers [PBS with 2% fetal bovine serum (FBS, Invitrogen) and 0.05% sodium azide] and incubated with FITC-labeled rabbit F(ab)′₂ anti-mouse IgG antibodies (AbD Serotech) 1:400 diluted in staining buffers on ice for 30 min. After washing, cells were resuspended in 200 μl of staining buffer and subjected to flow cytometric analyses. […]

The target of experiment [6] is T6, mα1.FcS expressed on Ramos cells (human, UniProt P01876 103-398).
T6 construct: also called Ramos/mα1.FcS
Nature of the experiment: flow cytometry on Ramos/mα1.FcS cells, 1 µg/ml. The protocol: (§3) For flow cytometric assays in the examples, 3C10 was used as a positive control of detecting mIgA expression and a mouse anti-human mIgE mAb 4B12 (Igγ1, κ) was served as a negative control. To perform the cell staining, 10⁶ cells were washed and incubated with mAbs in 100 μl of staining buffers on ice for 30 min. Cells were subsequently washed with staining buffers and incubated with FITC-labeled rabbit F(ab)′₂ anti-mouse IgG antibodies […] 1:400 diluted in 100 μl staining buffers on ice for 30 min. After washing, cells were resuspended in 400 μl of staining buffers and subjected to flow cytometric analyses in a FACSCanto II (BD Biosciences). […] At the low concentrations (1 μg/ml) staining signals of 29C11 towards these three mIgA-expressing B cells are undetectable.
(A flow cytometer gives signals particle by particle.)

For experiment [7], the target named is T7, synthetic polypeptide maFa, N-terminal part of migis-αL (human).
T7 construct: also called the N-terminal polypeptide
T7 peptide: GSCSVADWQMPPPYVVLD
Nature of the experiment: ELISA on coated synthetic polypeptides, 10 µg/ml. As to the method: as §1
Synthetic migis-αL polypeptides were further used to study binding epitopes of anti-migis-α mAbs by ELISA. […]

Experiment [8] deals with T8, mα1.FcL-456S-LZ recombinant protein (human).
T8 construct: also called mα1.FcL-LZ
T8 chain: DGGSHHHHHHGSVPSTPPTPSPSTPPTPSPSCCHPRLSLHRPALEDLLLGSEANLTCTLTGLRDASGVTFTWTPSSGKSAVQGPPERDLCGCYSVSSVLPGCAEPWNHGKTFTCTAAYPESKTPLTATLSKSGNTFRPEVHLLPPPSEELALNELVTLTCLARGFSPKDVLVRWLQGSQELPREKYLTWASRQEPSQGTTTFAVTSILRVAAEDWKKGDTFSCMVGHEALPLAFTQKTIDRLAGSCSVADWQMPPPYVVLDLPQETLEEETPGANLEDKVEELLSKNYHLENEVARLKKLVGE
Nature of the experiment: ELISA, serial dilution of mAb on coated mα1.FcL-456S-LZ. The protocol: as §1
The binding curves were analyzed by the software Prism® (GraphPad) and the equation used for calculation was shown below.

Experiment [9] addresses T9, membrane-bound IgA (mIgA) on DAKIKI cells (human, UniProt P01876 1-398).
T9 construct: whole, on cells; also called mIgA-expressing B cells
Nature of the experiment: flow cytometry on DAKIKI cells, 10 µg/ml against 1 µg/ml. As to the method:
as §3

Experiment [10] concerns the target mα1.FcL-456C expressed on Ramos cells (human, UniProt P01876 103-398). Description: flow cytometry on Ramos/mα1.FcL-456S (so in the source) cells, 1 µg/ml. As to the method:
as §3

T9 sequence (P01876 whole entry): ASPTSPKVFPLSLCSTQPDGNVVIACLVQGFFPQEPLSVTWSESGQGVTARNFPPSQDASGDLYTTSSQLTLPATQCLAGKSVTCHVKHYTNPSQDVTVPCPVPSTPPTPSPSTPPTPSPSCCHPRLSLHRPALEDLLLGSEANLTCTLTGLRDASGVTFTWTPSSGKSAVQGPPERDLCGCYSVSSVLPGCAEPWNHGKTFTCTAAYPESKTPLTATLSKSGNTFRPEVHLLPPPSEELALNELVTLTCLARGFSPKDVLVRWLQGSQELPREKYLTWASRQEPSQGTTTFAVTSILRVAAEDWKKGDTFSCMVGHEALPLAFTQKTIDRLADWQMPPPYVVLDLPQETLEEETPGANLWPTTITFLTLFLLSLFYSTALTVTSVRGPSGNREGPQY

B1: anti-migis-α mAb 8G7 (antibody, V domains shown)
VH: EVQLQESGPSLVKPSQTLSLTCSVTGDSITNGYWNWIRKFPGNKLEYMGYISYSGSTYYNPSLKSRIFITRDTSKNQYYLQLNSVTTEDTAIYYCARWLGGRAYWGQGTTLIVSS
VL: DIVMTQSQKFMSTSVGDRVSVTCKASQNVGTNVVWYQQKPGQSPKTLIYSASRRFSGVPDRFTGSGSGTDFTLTISNVQSEDLAEYFCQQYNSYPLTFGAGTKLELK
notes: also called 8G7 mAb
Regarding B1, the binding result is given as “no binding (tested: 10 µg/ml peptide coated)” in experiment [1]; “no binding (tested: 10 µg/ml peptide coated)” in [2]; “no binding (tested: 10 µg/ml peptide coated)” in experiment [3]; “no binding (tested: 10 µg/ml peptide coated)” in experiment [4]; “no binding” in experiment [5]; “binds” in experiment [7]. Further, the figures for the “fold of MFI over background against that of 29C11, (MFI8G7-MFIbackground)/(MFI29C11-MFIbackground)” value in [6] and in [10] were 10.4 fold and 13.5 fold, respectively. Moreover, in experiment [8], the “fold lower concentration at half the maximum binding than 29C11” value is about 6 fold. Besides, in [9], the “fold of the increment of MFI (high minus low concentration, over background) against that of 29C11” value was 12.5 fold.
